The text below walks through data of the nanobody polyreactivity screen of Harvey et al. (2022).

The data set is described as follows: yeast display, Sf9 membrane polyspecificity reagent, FACS + sequencing; frameworks hold sequencing errors. The method in brief: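 Using colony PCR, genes from sorted yeast display clones were amplified, then sequenced on MiSeq at 2 × 250 and filtered by CDR length. The clones had been stained with 10% biotinylated, detergent-solubilized Sf9 membrane reagent for 1 hour at 4 °C and sorted by FACS into low and high (top ~1%) gates on anti-HA and streptavidin fluorescence. Polyreactivity labels come from the gate of origin.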
On to “QVQLVESGGGLVQAGGSLRLSCAASGSTFDYYAMGWYRQAPGKERELVAAISRTGGRTYYADSVKGRFTISRDNEKNSVYLQMHSLKPEESAVYYCNSVTRIGGGDYDYWGQGTQVTVSS”, for which the “polyreactivity (PSR sort gate)” value is given as “low polyreactivity”.

As to “QVQLVESGGGLVQAGGSLRLSCAASGSTFDYYAMGWYRQAPGKERELVAAISSSGSRTHYADSVKGRFTISRDNAKNTVYLQMNSLKPEDTAVYYCATYTKYWRYPYDYWGQGTQVTVSS”, the “polyreactivity (PSR sort gate)” value is reported as “high polyreactivity”.

For the sequence “QVQLVESGGGLVQAGGSLRLSCAASGSTFDYYAMGWYRQAPGKERELVAAISSSGSSTYYADSVKGLFTISRDNAKNTVYLQMNSLKPEDTAVYYCAKGTNYRDDYWGQGTQVTVSS”, the “polyreactivity (PSR sort gate)” value was “low polyreactivity”.

On to “QVQLVESGGGLVQAGGSLRLSCAASGSTFDYYAMGWYRQAPGKERELVAAITGTGGSTYYADSVKGRFTISRDNAKNTVYLQMNSLKPEDTAVYYCAADTYLGWSYYWGQGTQVTVSS”, for which the “polyreactivity (PSR sort gate)” value is “high polyreactivity”.

Regarding “QVQLVESGGGLVQAGGSLRLSCAASGSTFDYYDMGWYRQAPGKERELVAAINWSGGSTYYADSVKGRFTISRDNAKNTVYLQMNSLKPEDTAVYYCAADLSSRGISQDDYWGQGTQVTVSS”, the “polyreactivity (PSR sort gate)” value is recorded as “high polyreactivity”.

On to “QVQLVESGGGLVQAGGSLRLSCAASGSTFDYYPMGWYRQAPGKERELVAAITYSGGRTSYADSVKGRFTISRDNAKNTVYLQMNSLKPEDTAVYYCAAVYDGQYYASYSTYDYDYWGQGTQVTVSS”, for which the “polyreactivity (PSR sort gate)” value is reported as “low polyreactivity”.

For the sequence “QVQLVESGGGLVQAGGSLRLSCAASGSTFEDNTMGWYRQAPGKERELVAAISNSGGSTYYADSVKGRFTISRDNAKNTVYLQMNSLKPEDTAVYYCAADFYDPFDYWGQGTQVTVSS”, the “polyreactivity (PSR sort gate)” value is recorded as “low polyreactivity”.

Turning to “QVQLVESGGGLVQAGGSLRLSCAASGSTFEDYAMGWYRQAPGKERELVAVITGNGGSTNYADSVKGRFTISRDNAKNTVYLQMNSLKPEDTAVYYCAADFYTFVRSDYWGQGTQVTVSS”, the “polyreactivity (PSR sort gate)” value is “low polyreactivity”.

Regarding “QVQLVESGGGLVQAGGSLRLSCAASGSTFEFYAMGWYRQAPGKERELVAAISSIGGSTYYADSVKGRFTISRDNAKNTVYLQMNSLKPEDTAVYYCAATSDSSLYVYWGQGTQVTVSS”, the “polyreactivity (PSR sort gate)” value was “low polyreactivity”.

As for “QVQLVESGGGLVQAGGSLRLSCAASGSTFEKNAMGWYRQAPGKERELVAAISNGVSTYYADSVKGRFTISRDNAKNTVYLQMNSLKPEDTAVYYCAADLFFGAETVYYDKFDYWGQGTQVTVSS”, the “polyreactivity (PSR sort gate)” value is reported as “low polyreactivity”.

On to “QVQLVESGGGLVQAGGSLRLSCAASGSTFENNVMGWYRQAPGKERELVATITWGDGSTSYADSVKGRFTISRDNAKNTVYLQMNSLKPEDTAVYYCAADDRIGYGKNKDHDYWGQGTQVTVSS”, for which the “polyreactivity (PSR sort gate)” value is reported as “low polyreactivity”.

“QVQLVESGGGLVQAGGSLRLSCAASGSTFEPNAMGWSRQEPGKERELVASITSSGGSTYYADSVKGRFTISRDNAKNTVYLQMKSLKPEDTAVYYCNARVPPQGWGPWKAFDYWGQGTQVTVSS”: the “polyreactivity (PSR sort gate)” value was “low polyreactivity”.

Turning to “QVQLVESGGGLVQAGGSLRLSCAASGSTFEQYAMGWYRQAPGKERELVAAISGSGTRTYYADSVKGRFTISRDNAKNTVYLQMNSLKPEDTAVYYCAARFSYPAIHQAYYHWGQGTQVTVSS”, the “polyreactivity (PSR sort gate)” value is on record as “high polyreactivity”.

Turning to “QVQLVESGGGLVQAGGSLRLSCAASGSTFERNTMGWYRQAPGKERELVASISRGDGTYADSVKGRFTISRDNAKNTVYLQMNSLKPEDTAVYYCAAVQRESGSDYDYWGQGTQVTVSS”, the “polyreactivity (PSR sort gate)” value was “low polyreactivity”.

“QVQLVESGGGLVQAGGSLRLSCAASGSTFERYAMGWYRQAPGKEREFVATINWGGGSTYYADSVKGRFTISRDNAKNTVYLQMNSLKPEDTAVYYCNAYVLYQSWRFSYDCWGQGTQVTVSS”: the “polyreactivity (PSR sort gate)” value was “low polyreactivity”.

“QVQLVESGGGLVQAGGSLRLSCAASGSTFERYVMGWYRQRQGKKWSWLPVLNHNGGSTYYADSVKGRFTISRDNAKNSVYLQMNSRKPEYTAVYYCAKDGLNESQFPGNLRDYWGQGTQVNVSS”: the “polyreactivity (PSR sort gate)” value is on record as “low polyreactivity”.

Regarding “QVQLVESGGGLVQAGGSLRLSCAASGSTFESNAMGWYRQAPGKERELVAAISRGRTNYADSVKGRFTISRDNAKNTVYLQMNSLKPEDTAVYYCAADGLSNVRQMDYWGQGTQVTVSS”, the “polyreactivity (PSR sort gate)” value was “low polyreactivity”.

For the sequence “QVQLVESGGGLVQAGGSLRLSCAASGSTFESYAMGWYRQAPGKERELVAAISGRVGSTYYADSVKGRFTISRDNAKNTVYLQMNSLKPEDTAVYYCASKGWYSHYGGYDYWGQGTQVTVSS”, the “polyreactivity (PSR sort gate)” value was “low polyreactivity”.

Regarding “QVQLVESGGGLVQAGGSLRLSCAASGSTFEVYAMGWYRQAPGTERELVAVITNSGTSTNYADSVKGRFTISRDNAKNTVYLQMTSLKPEDTAVYYCAADVEWTSRGSYYRYYYWGQGTQVTVSS”, the “polyreactivity (PSR sort gate)” value was “low polyreactivity”.

For “QVQLVESGGGLVQAGGSLRLSCAASGSTFEYNAMGWYRQAPGKERELVASSTNYADSVKGRFTISLDNAKNTVYLQMNSLKPEDTAVYYCAREQGVNRNHDYWGQGTQVNVSS”, the “polyreactivity (PSR sort gate)” value is listed as “low polyreactivity”.

Consider “QVQLVESGGGLVQAGGSLRLSCAASGSTFFANTMGWYRQAPGKERELVAAIRDSGGSTYYADSVKGRFTISRDNSKNTVYLQMNSLKPEDTAVYYCSARYLVYGYPYRFYYWGQGTQVTVSS”, for which the “polyreactivity (PSR sort gate)” value was “high polyreactivity”.

With “QVQLVESGGGLVQAGGSLRLSCAASGSTFFDNAMGWYRQAPGKERELVAAISWSGARTYYADSVKGRFTISRDNAKNTVYLQMNSLKPEDTAVYYCAARFYVSNSRKSARNYWGQGTQVTVSS”, the “polyreactivity (PSR sort gate)” value was “high polyreactivity”.

As for “QVQLVESGGGLVQAGGSLRLSCAASGSTFFDYAMGWYRQAPGKERELVAVISDGGTTTYADSVKGRFTISRDNAKNTVYLQMNSLKPVDTAVYYCAAENQDGLLVILGGYGYWGQGTQVTVSS”, the “polyreactivity (PSR sort gate)” value is given as “low polyreactivity”.

“QVQLVESGGGLVQAGGSLRLSCAASGSTFFEYTMGWYRQAPGKEREFVADIRGRDGSTSYADSVKGRFTISRDNAKNTVYLQMKSLKPEDTAVYYCGADVSDWWSFGNDSWGHGTQVTVSS”: the “polyreactivity (PSR sort gate)” value is listed as “low polyreactivity”.

Turning to “QVQLVESGGGLVQAGGSLRLSCAASGSTFFEYTMGWYRQAPGKEREFVADIRGRDGSTSYADSVKGRFTISRDNAKNTVYLQMNSLKPEDTAVYYCAADVSDWWSFGNDSWGQGTQVTVSS”, the “polyreactivity (PSR sort gate)” value is listed as “low polyreactivity”.

In the case of “QVQLVESGGGLVQAGGSLRLSCAASGSTFFFNEMGWYRQAPGKEREVVAAITGRSGSTYYADSVKGRFTISRDNANNTDYLQMNSLKPEDNAVYYCAGDYSPWRSDFDYWGQGTQVTVSS”, the “polyreactivity (PSR sort gate)” value was “low polyreactivity”.

In the case of “QVQLVESGGGLVQAGGSLRLSCAASGSTFFGNAMGWYRQAPGKERELVAVITKGGGSTYYADSVKGRFTISRDNAKNTVYLQMNSLKPEDTAVYYCAKTYTSGYHRRYDYWGQGTQVTVSS”, the “polyreactivity (PSR sort gate)” value is “low polyreactivity”.

For the sequence “QVQLVESGGGLVQAGGSLRLSCAASGSTFFHYAMGWYRQAPGKERELVAAIDSNGGSTYYADSVKGRFTISRDNAKNTVYLQMNSLKPEVTAVYYCAADDLAEFEYDYWGLGTQVTVSS”, the “polyreactivity (PSR sort gate)” value is on record as “low polyreactivity”.

For “QVQLVESGGGLVQAGGSLRLSCAASGSTFFIYAMGWYRQAPGKERELVAAISGSGGTTYYADSVKGRFTISRDNAKNTVYLQMNSLKPEDTAVYYCAARTFSAFWRGGYDYWGQGTQVTVSS”, the “polyreactivity (PSR sort gate)” value is reported as “low polyreactivity”.

On to “QVQLVESGGGLVQAGGSLRLSCAASGSTFFKNAMGWYRQAPGKESELVAGISYGGGRTYYADSVKGRFTISRDNAKNTVYLQMKSLKPEDTAVYYCNTVTSPAPYYSYDSWGQGTQVTVSS”, for which the “polyreactivity (PSR sort gate)” value is given as “high polyreactivity”.

With “QVQLVESGGGLVQAGGSLRLSCAASGSTFFLYGRGWYRQARGKERELVATISKRGGSTHYADSVKGRFTISRDNAKNTVYVQKHSLKPEDTAVYYCAAGRPGVSFKEWSYKPSSSYDYWGQGTQVTVSS”, the “polyreactivity (PSR sort gate)” value is recorded as “low polyreactivity”.

As for “QVQLVESGGGLVQAGGSLRLSCAASGSTFFLYSMGWYRPAPGKERELVAAINYIGGTYYADSVKGRFTISRDNAKNTVYLQMNSLKPEDTAVYYCAASYVGTIAGMDYWGQGTQVTVSS”, the “polyreactivity (PSR sort gate)” value is listed as “low polyreactivity”.

For “QVQLVESGGGLVQAGGSLRLSCAASGSTFFPNAMGWYRQAPGKEREFVAAISWSGGRTYYADSVKGRFTISRDNAKNTVYLQMNSLKPEDTAVYYCAARLYTVRYGYWGQGTQVTVSS”, the “polyreactivity (PSR sort gate)” value was “high polyreactivity”.

As for “QVQLVESGGGLVQAGGSLRLSCAASGSTFFPNGMGWYRQAPGKERELVAAITQDGGSTYYADSVKGRFTISRDNAKNTVYLQMNSLKPEDTAVYYCAASAGPYYEYGYWGQGTQVTVSS”, the “polyreactivity (PSR sort gate)” value was “low polyreactivity”.

Take “QVQLVESGGGLVQAGGSLRLSCAASGSTFFPYAMGWYRQAPGKERELVATINYSGGGTYYADSVKGRFTISRDNAKNTGYLQMNSLKPEDTAVYYCAKTLARFDRGYYWGQGTQVTVSS”: the “polyreactivity (PSR sort gate)” value is given as “low polyreactivity”.

With “QVQLVESGGGLVQAGGSLRLSCAASGSTFFRNAMGWYRQAPGKERELVAAISGSGNTYYADSVKGRFTISRDNAKNTVYLQMNSLKPEDTAVYYCADDVVYWYFHYDYWGQGTQVTVSS”, the “polyreactivity (PSR sort gate)” value is given as “low polyreactivity”.

Take “QVQLVESGGGLVQAGGSLRLSCAASGSTFFRYAMGLYRQAPGKEREFVAAITWSGTGTYYADSVKGRFTISRDNAKNTVYLQMNSLKPEDTAVYYCAARRSSNVRRDYWGQGTQVTVSS”: the “polyreactivity (PSR sort gate)” value is “high polyreactivity”.

As to “QVQLVESGGGLVQAGGSLRLSCAASGSTFFRYAMGWYRQAPGKEREFVAAITSSGGNTYYADSVKGRFTISRDNAKNTVYLQMNSLKPEDTAVYYCADVWYSPYVKYNYWGQGTQVTVSS”, the “polyreactivity (PSR sort gate)” value was “low polyreactivity”.

On to “QVQLVESGGGLVQAGGSLRLSCAASGSTFFRYAMGWYRQAPGKERELVAAISWSGGTTYYADSVKGRFSISRDNAKNTVYLQMNSLKPEDTAVYFCNAVRQGHILDYWGQGTQVTVSS”, for which the “polyreactivity (PSR sort gate)” value is “low polyreactivity”.

For “QVQLVESGGGLVQAGGSLRLSCAASGSTFFRYAMVWYRQAPGKERELVAAITWTGGDTYYEDSVKVRFTISRDNAMNTVYLKMNSLKPEDTAVYYCNKRLDSYYLPGFDYWGQGTQVTVSS”, the “polyreactivity (PSR sort gate)” value is reported as “low polyreactivity”.

On to “QVQLVESGGGLVQAGGSLRLSCAASGSTFFYKAMGWYRPAPGKERELVAVISSRGTSTYYADSVKGRFTISRDNAKNTVYLQMNSLKPEDTAVYYCAAVQIRHTATLLHKPGYYWGQGTQVTVSS”, for which the “polyreactivity (PSR sort gate)” value is given as “high polyreactivity”.
